The numbers were not newly measured in PMC8442009, which cites them from elsewhere.

For data set [1], the target named is γc (Homo sapiens) (UniProt P31785).
In data set [2] the target is IL-4Rα/γc (Homo sapiens) (UniProt P24394).
The target in data set [3] is IL-4Rα (Homo sapiens) (UniProt P24394).

pKd: −log10 of the molar value.

UniProt P31785, sequence (P31785 23-262): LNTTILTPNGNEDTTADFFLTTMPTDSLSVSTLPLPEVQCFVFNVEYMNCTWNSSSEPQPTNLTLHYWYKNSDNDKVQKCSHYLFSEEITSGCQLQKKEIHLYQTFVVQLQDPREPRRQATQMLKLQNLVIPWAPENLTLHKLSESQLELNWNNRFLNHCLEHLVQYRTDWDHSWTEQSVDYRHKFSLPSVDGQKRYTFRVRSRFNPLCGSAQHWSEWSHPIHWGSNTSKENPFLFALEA

By pKd is commonly meant the Kd on a negative log10 scale, so that one unit is a factor of ten. As to IL-4-IL-4Rα (from UniProt P05112), the pKd in data set [1] was under 6.30.
With IL-4 (from UniProt P05112), the figures for the pKd in data set [2] and in data set [3] were 10.10 and 9.58, respectively.
